Test results reported in the RNAGym collection of RNA variant scans (doi:10.1073/pnas.2313332121).
Variants at the floor of the assay were thinned out.

B1: TPR 5TU (parent)
chain: GGAUCUUCUCGAUCUAACAAAAAAGACAAAUCUGCCACAAAGCUUGAGAGCAUCUUCGGAUGCAGAGGCGGCAGCCUUCGGUGGCGCGAUAGCGCCAACGUUCUCAACUAUGACACGCAAAACGCGUGCUCCGUUGAAUGGAGUUUAUCAUG

Variants of: B1
Test: polymerase ribozyme fitness, log enrichment relative to wild type (log ratio); higher = more active; in vitro selection for triplet polymerase activity
In short: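 For each subunit of a heterodimeric triplet polymerase ribozyme, a mutant library was built by PCR and transcribed, then taken through a single in vitro selection round in triplicate. Selection involved annealing to a biotinylated primer, the partner subunit and triplets, incubation frozen at −7 °C, gel excision of extended constructs, capture on streptavidin beads and RT-PCR. Genotypes were retained after Illumina sequencing of inputs and outputs only with ≥10 input reads and ≥1 read in each output. Fitness is defined as the logarithm of a genotype's enrichment relative to wild-type enrichment, using inverse-variance-weighted averages across replicates, with the logarithm taken to base 2.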

Variant | polymerase ribozyme fitness (log ratio)
C10G C38U G50A U90A U127C G128U U145A | ≤ -4.2
U9G U15C A19U C35G A113U C132U | ≤ -4.2
C10G U61C G86C C105G A119C | ≤ -4.2
C10G A12G C27G A49G G62C G67A G68U C93U | ≤ -4.2
C10G A12U A22G C35G G94A C95U C99A U111C | ≤ -4.2
U9G C103A | -3.73
C10U U55G | -3.19
C10A C63U G67A U77C G92A U127C U135G | ≤ -4.2
G11U C32A G50A C116U A121U C132U U144G | ≤ -4.2
C10G A97U U130G | ≤ -4.2
U9C A40C U56A C96G U101C U134C | ≤ -4.2
C10A A29C U44G G58A A60G A97U G141C | ≤ -4.2
U9C C43G G65A G67C C95A | -4.09
C8U U56G G59A G65A G84U A91G | ≤ -4.2
U9G A52G G71A A73G G128U G143U | ≤ -4.2
G11A A49G A60U | -2.63
C10U A22C A60G C87U G88U | ≤ -4.2
U9C A52G U53A C114G U145G | ≤ -4.2
G11A G34C U56A C57U C99G A142C | ≤ -4.2
C10U C27G C54U G92C C114G | ≤ -4.2
G11U C14G G46A U55A C87U | ≤ -4.2

Variant | polymerase ribozyme fitness (log ratio)
C10U U78A G86A A107G G124A G140A G141C | ≤ -4.2
C10U A20U C57A U145C | -3.45
C10U A39C C57A G59C A66U G67U G81A C85G C105A U135C G140C G143C | ≤ -4.2
C10G C27A U82C G83A A91U | ≤ -4.2
U9G C27G U55A C57A G59A | ≤ -4.2
U9A A21U | -3.81
U9A A22U A39G C96G U109G | ≤ -4.2
G11U A40U G84A A110G | -3.56
U9G C96U A97G C103G A115U U127A | ≤ -4.2
G11A G50C C93U A97U G141U | ≤ -4.2
G11A U55A U77G G83C A142U | ≤ -4.2
C10U G84U | -4.13
G11A C27A A73C G74A G81A A89U C93G G126U | ≤ -4.2
G11C C54U C85U A115G | -3.49
U9G U33A G50A | -4.2
C10U C18G A19C A40U C87G G88U | ≤ -4.2
U9C U13A U15A C76U G86U | -4.11
C10U C87U | -2.87
G11C A19G A52G G68C A97G C132A U134C U144A | ≤ -4.2
U9A G25C C38U G71U U135C A147G | ≤ -4.2
C10A C54G G80C G81A C85U C129A U135C | ≤ -4.2

Variant | polymerase ribozyme fitness (log ratio)
U9G G25C C27U C35U U102A A147C | ≤ -4.2
C10G U56A A89U C99U G112C U145G | ≤ -4.2
C10U U15A G50C C76U C85A | ≤ -4.2
U9A A64G A89U G92A C131G | ≤ -4.2
C10A A66U G81A G94U U134A | ≤ -4.2
G11A A89G G94A C105G G112C | ≤ -4.2
C10G A30U C43G G58A G68A G80A A113C | ≤ -4.2
G11A U56A C76U U111C U148A | ≤ -4.2
C10A A12G A17U C32A C96U A110U C116U A147C | ≤ -4.2
G11U A28U C43U C87A C99G G126A | -4.16
G11A A39U | -3.28
C10U C76U A91U C95A A113U A120U | ≤ -4.2
U9G U61A C75U C85U G124C | ≤ -4.2
G11A G46U G92A C118U | ≤ -4.2
C10G A41G A115G | ≤ -4.2
G11U A23U G68A U130G U135C | ≤ -4.2
C10G A30G C38A G94U C125G U144C | ≤ -4.2
G11U C38U G58C C96U A98G | -1.45
C10A C32A C54U C116A G143A | ≤ -4.2
G11U C14G A20G C27G A52U G80A A120U G141U U144G | ≤ -4.2
C10A C87U | -3.47

Variant | polymerase ribozyme fitness (log ratio)
G11A A110G | -3.76
C10A A41C C76A A91U C96G A121C U127G | ≤ -4.2
C10U A40G G50U C79G C99U C108G G117A | ≤ -4.2
C10A C14G A19U A30C C93U | ≤ -4.2
C10A A23G C32A C38U G46U G59A A60G A97G | ≤ -4.2
C10U A22G U44A G100U C103A | ≤ -4.2
G11U C18G C54A G88A C118A | ≤ -4.2
U9C A37U G92A U102G C108U | ≤ -4.2
C10A C54G A73U A120U | ≤ -4.2
C10U C105A | -3.59
U9A U13A A29G C96A C132A | ≤ -4.2
C10A A17C A41G C54G U55A C85U C95U U104G G126U A138G G152U | ≤ -4.2
G11A A12U C51G U55G G62C U90C C108G | ≤ -4.2
C10U A17G A23C A24C A26G U31G A39U U44A C54G C57G G86U A97U A142C | ≤ -4.2
G11A A91G C114U U144C | -4.14
G11C A23U G48C C79A U82G G94U A142U | ≤ -4.2
G11C G25U A52C C54U C95U A107G U144A | ≤ -4.2
U9C A26U C38U C54A A66C U78A A89C A97G | ≤ -4.2
C10G A89G C103U U134G G141A U151A | ≤ -4.2
C10G C14U C36A C79U G92U | ≤ -4.2
C10G G84A | -3.26
